Test [1] deals with T1, AW5, C-terminally His-tagged recombinant product of positions 1 to 357 of GPC3 (human, UniProt P51654 25-357).
T1 construct: Expressed in CHO cells, cell pellets used in Western blot; The range is as printed and starts at position 1; also called AW5 (1-357); not shown: C-terminal His tag
Briefly: Western blot analysis, CHO cell pellets.

In test [2] the target is T2, AW2, C-terminally His-tagged recombinant product of positions 1 to 196 of GPC3 (human, UniProt P51654 25-196).
T2 construct: Expressed in CHO cells, cell pellets used in Western blot; The range is as printed and starts at position 1; also called AW2 (1-196); not shown: C-terminal His tag
T2 sequence (P51654 25-196): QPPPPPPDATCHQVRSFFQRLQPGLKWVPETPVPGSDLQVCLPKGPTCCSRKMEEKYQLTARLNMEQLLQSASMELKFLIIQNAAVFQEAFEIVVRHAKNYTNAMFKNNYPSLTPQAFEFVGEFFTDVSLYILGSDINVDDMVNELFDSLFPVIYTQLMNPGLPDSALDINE
The test can be described thus: Western blot, pellets of CHO cells expressing the product. In general terms: A western blot detects proteins with antibodies after separation by electrophoresis.

Test [3] concerns the target GPC3 core (sGPC3-His) protein (human) (UniProt P51654). Briefly: ELISA on plate-bound sGPC3; biotin-labeled GT114, no unlabeled antibody.
Test [4] has the same target. The test can be described thus: competition ELISA on plate-bound sGPC3; unlabeled GT114 (100-fold) against competitor biotin-labeled GT30.
The target is the same in test [5]. Briefly: competition ELISA on plate-bound sGPC3; unlabeled GT114 (100-fold) against competitor biotin-labeled GT165. (In general: An ELISA detects its analyte on a solid surface through an enzyme-linked reagent.)
The target is the same in test [6]. Briefly: competition ELISA on plate-bound sGPC3; unlabeled GT114 (100-fold) against competitor biotin-labeled GT607.
Test [7] shares this target. Briefly: competition ELISA on plate-bound sGPC3; unlabeled GT114 (100-fold) against competitor biotin-labeled GT30; signal of the labeled antibody.
Test [8] has the same target. The test can be described thus: competition ELISA on plate-bound sGPC3; unlabeled GT114 (100-fold) against competitor biotin-labeled GT114; signal of the labeled antibody.
Test [9] shares this target. The test can be described thus: competition ELISA on plate-bound sGPC3; unlabeled GT114 (100-fold) against competitor biotin-labeled GT165; signal of the labeled antibody.
Test [10] shares this target. The test can be described thus: competition ELISA on plate-bound sGPC3; unlabeled GT114 (100-fold) against competitor biotin-labeled GT607; signal of the labeled antibody.
For test [11] the target is unchanged. The test can be described thus: ELISA on plate-bound sGPC3; biotin-labeled GT607, no unlabeled antibody.
For test [12] the target is unchanged. The test can be described thus: competition ELISA on plate-bound sGPC3; unlabeled GT607 (100-fold) against competitor biotin-labeled GT30.
For test [13] the target is unchanged. Briefly: competition ELISA on plate-bound sGPC3; unlabeled GT607 (100-fold) against competitor biotin-labeled GT114.
Test [14] shares this target. Briefly: competition ELISA on plate-bound sGPC3; unlabeled GT607 (100-fold) against competitor biotin-labeled GT165.
For test [15] the target is unchanged. Briefly: competition ELISA on plate-bound sGPC3; unlabeled GT607 (100-fold) against competitor biotin-labeled GT607.
For test [16] the target is unchanged. The test can be described thus: competition ELISA on plate-bound sGPC3; unlabeled GT607 (100-fold) against competitor biotin-labeled GT30; signal of the labeled antibody.
For test [17] the target is unchanged. Briefly: competition ELISA on plate-bound sGPC3; unlabeled GT607 (100-fold) against competitor biotin-labeled GT114; signal of the labeled antibody.
Test [18] shares this target. The test can be described thus: competition ELISA on plate-bound sGPC3; unlabeled GT607 (100-fold) against competitor biotin-labeled GT165; signal of the labeled antibody.
For test [19] the target is unchanged. Briefly: competition ELISA on plate-bound sGPC3; unlabeled GT607 (100-fold) against competitor biotin-labeled GT607; signal of the labeled antibody.
Test [20] has the same target. Briefly: ELISA on plate-bound sGPC3; biotin-labeled GT165, no unlabeled antibody.
Test [21] shares this target. The test can be described thus: competition ELISA on plate-bound sGPC3; unlabeled GT165 (100-fold) against competitor biotin-labeled GT114.
Test [22] has the same target. Briefly: competition ELISA on plate-bound sGPC3; unlabeled GT165 (100-fold) against competitor biotin-labeled GT607.
For test [23] the target is unchanged. The test can be described thus: competition ELISA on plate-bound sGPC3; unlabeled GT165 (100-fold) against competitor biotin-labeled GT30; signal of the labeled antibody.
The target is the same in test [24]. Briefly: competition ELISA on plate-bound sGPC3; unlabeled GT165 (100-fold) against competitor biotin-labeled GT114; signal of the labeled antibody.
Test [25] shares this target. The test can be described thus: competition ELISA on plate-bound sGPC3; unlabeled GT165 (100-fold) against competitor biotin-labeled GT607; signal of the labeled antibody.

Sequence of GPC3 core (sGPC3-His) protein (human) (P51654 25-563 S495A/S509A): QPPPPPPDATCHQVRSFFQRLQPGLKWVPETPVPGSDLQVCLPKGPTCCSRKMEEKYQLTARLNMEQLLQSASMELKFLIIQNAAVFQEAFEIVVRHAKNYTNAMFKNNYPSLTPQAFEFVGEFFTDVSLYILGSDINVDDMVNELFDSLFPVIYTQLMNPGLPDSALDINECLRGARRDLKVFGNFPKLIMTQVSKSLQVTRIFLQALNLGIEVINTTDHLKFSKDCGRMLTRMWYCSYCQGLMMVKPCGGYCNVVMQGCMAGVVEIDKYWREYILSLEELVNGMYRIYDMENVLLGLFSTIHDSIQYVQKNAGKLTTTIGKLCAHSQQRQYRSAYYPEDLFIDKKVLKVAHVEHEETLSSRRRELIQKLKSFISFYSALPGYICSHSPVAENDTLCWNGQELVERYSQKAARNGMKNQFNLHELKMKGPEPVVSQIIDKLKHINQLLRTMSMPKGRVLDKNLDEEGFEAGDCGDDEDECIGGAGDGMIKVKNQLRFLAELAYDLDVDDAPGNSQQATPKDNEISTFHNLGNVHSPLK
T1 sequence (P51654 25-357): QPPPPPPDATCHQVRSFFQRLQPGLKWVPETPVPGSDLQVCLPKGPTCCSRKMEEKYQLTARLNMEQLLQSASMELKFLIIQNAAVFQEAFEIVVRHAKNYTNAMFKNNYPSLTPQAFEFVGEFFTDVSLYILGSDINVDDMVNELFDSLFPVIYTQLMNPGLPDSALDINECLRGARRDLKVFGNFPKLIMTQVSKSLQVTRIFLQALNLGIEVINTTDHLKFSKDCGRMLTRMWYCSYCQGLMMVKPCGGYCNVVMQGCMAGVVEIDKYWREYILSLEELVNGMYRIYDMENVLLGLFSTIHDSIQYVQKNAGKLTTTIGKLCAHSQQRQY

B1: GT114 antibody (antibody, IgG1, V domains shown)
VH: DVQLQESGPGLVKPSQSLSLTCTVTGYSITSDSAWNWIRQFPGNKLEWMAYIMYSGITSYNPSLKSRISITRDTAKNQFFLQLNSVTTEDSATYYCSRGYWYFDVWGAGTTVTVSS
VL: QIVLTQSPAIMSASLGEEITLTCSASSSVSYMHWYQQKSGTSPKLLIYSTSILASGVPSRFSGSGSGTFYSLTISSVEAEDAADYYCLQWITYRTFGGGTKLEIKR
For B1, the values for the binding result in test [1] and in [2] were “binds” and “no binding”, respectively. The O.D. 450 in test [3] came to 2.3 O.D. 450; in test [7], 2.14 O.D. 450; in test [8], 0.251 O.D. 450; in test [9], 1.82 O.D. 450; in test [10], 0.307 O.D. 450. The Inhibitory effect (%) in test [4] is less than 0%; in test [5], less than 0%; in [6], 86%.

B2: GT607 antibody (antibody, IgG1, V domains shown)
VH: EVQLVESGGDVVRPGGSLKLSCAASGFTFSSYGMSWVRQLPDKRLEWVASVGNGGSYRYYPENLKGRFTISRDNTKNTLYLQISGLKSEDTAIYYCARRGAFPYFDVWGAGTTVTVSS
VL: QIVLTQSPAIMSASPGEKVTLACSASSSVTYMHWYQQKSGTSPKRWIYETSKLASGVPPRFSGSGSGTSYSLTISTMEAEDAATYYCQQWSSNPLTFGAGTKLELKR
As to B2, the binding result in test [1] is listed as “binds”; in test [2], “no binding”. In addition, the O.D. 450 amounted to 2.18 O.D. 450 in test [11]; 2.06 O.D. 450 in test [16]; 1.13 O.D. 450 in [17]; 0.129 O.D. 450 in [18]; 0.135 O.D. 450 in test [19]. The Inhibitory effect (%) is less than 0% in test [12], 51% in test [13], 92% in test [14] and 94% in test [15].

B3: GT165 antibody (antibody, IgG1, V domains shown)
VH: QVQLQQSGAELVGPGASVKISCKAFGYTFTNHHINWVKQRPGQGLDWIGYINPYNDYTNYNQKFKGKATLTVDKSSSTAYMELSSLTSEDSAVYYCARSDPAWFAYWGQGTLVTVSA
VL: DIQMTQSPSSLSASLGGKVTITCKASQDINKNIAWYQHKPGKGPRLLIWYTYTLQPGIPSRFSGSGSGRDYSFSISNLEPEDIATYYCLQYDNLPFTFGTGTKLEIKR
Turning to B3, the binding result in [2] is on record as “no binding”. In addition, the O.D. 450 in test [20] worked out at 1.68 O.D. 450; in [23] it was 0.846 O.D. 450; in test [24], 2.28 O.D. 450; in [25], 1.25 O.D. 450. Further, the Inhibitory effect (%) in test [21] is 1%; in test [22], 43%.

The record behind these values is EP3088890B1 (Chugai Seiyaku Kabushiki Kaisha, dated 2020).
